Test results reported in patent publication US20250262210A1 (TRUSTEES OF COLUMBIA UNIVERSITY IN THE CITY OF NEW YORK, published 2025).

Assays:
Experiment in all cases: IP/MS, LZTR1 R810W-FLAG, U87
[1] = molecular target: PEAK1 (human, UniProt Q9H792 1-1746)
Procedure, shortened: (§1)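 Read-out: spectral counts from LC-MS/MS (Orbitrap Fusion) after MaxQuant identification. Variable modifications were Met oxidation, protein N-terminal acetylation and N/Q deamidation.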

[2] = molecular target: URB1 (human, UniProt O60287 1-2271)
Procedure, shortened: as §1

[3] = molecular target: MTOR (human, UniProt P42345 1-2549)
Procedure, shortened: as §1

[4] = molecular target: T1, NCAPD3 (human, UniProt P42695 1-1498)
T1 sequence (looked up): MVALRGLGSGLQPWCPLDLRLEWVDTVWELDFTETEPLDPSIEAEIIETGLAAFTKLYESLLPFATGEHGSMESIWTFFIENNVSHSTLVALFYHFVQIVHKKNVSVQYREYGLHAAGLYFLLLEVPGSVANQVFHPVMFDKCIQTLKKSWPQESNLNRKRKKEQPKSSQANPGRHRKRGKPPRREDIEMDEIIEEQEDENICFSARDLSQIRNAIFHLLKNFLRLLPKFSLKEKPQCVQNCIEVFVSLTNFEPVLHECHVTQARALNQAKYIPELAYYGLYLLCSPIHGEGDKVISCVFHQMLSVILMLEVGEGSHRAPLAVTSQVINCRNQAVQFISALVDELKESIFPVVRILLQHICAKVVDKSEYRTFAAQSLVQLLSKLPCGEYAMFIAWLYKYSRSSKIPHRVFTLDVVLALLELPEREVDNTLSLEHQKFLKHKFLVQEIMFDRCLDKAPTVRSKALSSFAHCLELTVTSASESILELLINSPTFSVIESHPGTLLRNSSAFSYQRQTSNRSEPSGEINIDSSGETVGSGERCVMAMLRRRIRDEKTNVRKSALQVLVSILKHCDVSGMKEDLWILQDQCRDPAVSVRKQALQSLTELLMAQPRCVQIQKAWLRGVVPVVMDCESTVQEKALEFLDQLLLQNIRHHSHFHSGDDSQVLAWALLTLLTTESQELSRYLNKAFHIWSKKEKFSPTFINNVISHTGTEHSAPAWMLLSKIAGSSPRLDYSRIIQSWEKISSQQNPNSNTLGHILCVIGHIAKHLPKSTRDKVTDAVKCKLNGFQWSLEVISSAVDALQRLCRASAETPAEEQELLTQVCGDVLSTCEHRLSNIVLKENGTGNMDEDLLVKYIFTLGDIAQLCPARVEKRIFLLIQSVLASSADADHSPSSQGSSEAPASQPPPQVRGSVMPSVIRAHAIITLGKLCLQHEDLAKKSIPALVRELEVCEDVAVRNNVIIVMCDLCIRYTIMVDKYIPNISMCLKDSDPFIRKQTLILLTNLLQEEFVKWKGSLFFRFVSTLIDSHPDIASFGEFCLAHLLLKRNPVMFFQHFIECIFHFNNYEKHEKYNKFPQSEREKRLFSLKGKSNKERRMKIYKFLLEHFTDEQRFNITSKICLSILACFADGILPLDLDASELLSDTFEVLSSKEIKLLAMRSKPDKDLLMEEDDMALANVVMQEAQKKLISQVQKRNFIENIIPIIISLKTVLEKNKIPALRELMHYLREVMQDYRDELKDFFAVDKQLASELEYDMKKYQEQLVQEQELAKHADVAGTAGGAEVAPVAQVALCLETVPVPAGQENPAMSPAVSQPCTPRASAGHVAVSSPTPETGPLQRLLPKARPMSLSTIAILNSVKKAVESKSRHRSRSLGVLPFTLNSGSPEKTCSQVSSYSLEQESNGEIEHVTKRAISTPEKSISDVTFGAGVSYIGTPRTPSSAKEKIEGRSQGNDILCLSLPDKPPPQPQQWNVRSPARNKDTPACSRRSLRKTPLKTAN
Procedure, shortened: as §1

[5] = molecular target: ALPK2 (human, UniProt Q86TB3 1-2170)
Procedure, shortened: as §1

[6] = molecular target: HTT (human, UniProt P42858 1-3142)
Procedure, shortened: as §1

[7] = molecular target: PTPN23 (human, UniProt Q9H3S7 1-1636)
Procedure, shortened: as §1

[8] = molecular target: DPP9 (human, UniProt Q86TI2 2-863, limits assumed)
Procedure, shortened: as §1

Measured: binding result

PEAK1, sequence (Q9H792 whole entry, the tested form may be a part): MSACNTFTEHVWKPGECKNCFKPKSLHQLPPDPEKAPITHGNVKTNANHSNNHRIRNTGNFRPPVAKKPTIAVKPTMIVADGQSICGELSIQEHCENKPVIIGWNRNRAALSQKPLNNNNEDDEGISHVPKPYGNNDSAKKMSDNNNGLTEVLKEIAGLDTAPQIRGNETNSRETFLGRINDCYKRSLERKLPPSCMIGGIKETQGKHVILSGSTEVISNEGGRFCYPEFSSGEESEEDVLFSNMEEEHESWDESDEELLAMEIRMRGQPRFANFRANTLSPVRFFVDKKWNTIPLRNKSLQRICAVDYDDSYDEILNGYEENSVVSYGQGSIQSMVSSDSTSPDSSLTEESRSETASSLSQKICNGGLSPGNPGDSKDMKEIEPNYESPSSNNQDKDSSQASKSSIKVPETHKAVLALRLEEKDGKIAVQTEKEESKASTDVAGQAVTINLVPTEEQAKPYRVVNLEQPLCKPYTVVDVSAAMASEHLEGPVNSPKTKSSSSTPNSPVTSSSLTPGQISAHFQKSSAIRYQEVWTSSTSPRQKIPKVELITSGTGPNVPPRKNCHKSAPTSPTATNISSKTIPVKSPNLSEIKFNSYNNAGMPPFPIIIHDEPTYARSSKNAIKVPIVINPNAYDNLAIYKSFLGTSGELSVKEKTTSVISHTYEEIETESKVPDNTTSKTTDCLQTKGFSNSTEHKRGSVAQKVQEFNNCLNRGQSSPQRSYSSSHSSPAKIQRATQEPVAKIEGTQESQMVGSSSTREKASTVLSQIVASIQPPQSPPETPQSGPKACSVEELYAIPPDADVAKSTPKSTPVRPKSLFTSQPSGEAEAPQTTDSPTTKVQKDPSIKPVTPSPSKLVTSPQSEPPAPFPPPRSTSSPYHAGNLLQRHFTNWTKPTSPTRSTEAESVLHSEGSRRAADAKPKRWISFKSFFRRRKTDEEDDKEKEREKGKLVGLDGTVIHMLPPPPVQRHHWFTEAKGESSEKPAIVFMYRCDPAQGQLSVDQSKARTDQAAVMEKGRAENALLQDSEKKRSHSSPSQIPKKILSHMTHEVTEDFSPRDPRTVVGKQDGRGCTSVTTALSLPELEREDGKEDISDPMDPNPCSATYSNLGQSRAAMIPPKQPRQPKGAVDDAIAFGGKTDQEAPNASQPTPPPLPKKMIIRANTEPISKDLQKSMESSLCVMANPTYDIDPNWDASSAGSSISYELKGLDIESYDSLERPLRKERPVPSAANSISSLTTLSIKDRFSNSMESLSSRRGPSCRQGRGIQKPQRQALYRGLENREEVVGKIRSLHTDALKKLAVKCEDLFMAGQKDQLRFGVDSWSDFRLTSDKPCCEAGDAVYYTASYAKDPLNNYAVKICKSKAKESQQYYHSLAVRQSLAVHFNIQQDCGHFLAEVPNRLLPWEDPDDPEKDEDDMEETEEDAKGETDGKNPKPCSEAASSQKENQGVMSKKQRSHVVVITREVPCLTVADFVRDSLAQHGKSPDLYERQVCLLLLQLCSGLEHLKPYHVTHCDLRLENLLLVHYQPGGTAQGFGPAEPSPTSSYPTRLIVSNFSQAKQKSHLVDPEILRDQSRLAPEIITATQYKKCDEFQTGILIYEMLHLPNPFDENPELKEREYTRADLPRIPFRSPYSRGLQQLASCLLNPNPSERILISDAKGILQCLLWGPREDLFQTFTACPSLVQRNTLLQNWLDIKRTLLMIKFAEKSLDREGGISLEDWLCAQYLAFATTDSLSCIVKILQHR
DPP9, sequence (Q86TI2 2-863 limits assumed): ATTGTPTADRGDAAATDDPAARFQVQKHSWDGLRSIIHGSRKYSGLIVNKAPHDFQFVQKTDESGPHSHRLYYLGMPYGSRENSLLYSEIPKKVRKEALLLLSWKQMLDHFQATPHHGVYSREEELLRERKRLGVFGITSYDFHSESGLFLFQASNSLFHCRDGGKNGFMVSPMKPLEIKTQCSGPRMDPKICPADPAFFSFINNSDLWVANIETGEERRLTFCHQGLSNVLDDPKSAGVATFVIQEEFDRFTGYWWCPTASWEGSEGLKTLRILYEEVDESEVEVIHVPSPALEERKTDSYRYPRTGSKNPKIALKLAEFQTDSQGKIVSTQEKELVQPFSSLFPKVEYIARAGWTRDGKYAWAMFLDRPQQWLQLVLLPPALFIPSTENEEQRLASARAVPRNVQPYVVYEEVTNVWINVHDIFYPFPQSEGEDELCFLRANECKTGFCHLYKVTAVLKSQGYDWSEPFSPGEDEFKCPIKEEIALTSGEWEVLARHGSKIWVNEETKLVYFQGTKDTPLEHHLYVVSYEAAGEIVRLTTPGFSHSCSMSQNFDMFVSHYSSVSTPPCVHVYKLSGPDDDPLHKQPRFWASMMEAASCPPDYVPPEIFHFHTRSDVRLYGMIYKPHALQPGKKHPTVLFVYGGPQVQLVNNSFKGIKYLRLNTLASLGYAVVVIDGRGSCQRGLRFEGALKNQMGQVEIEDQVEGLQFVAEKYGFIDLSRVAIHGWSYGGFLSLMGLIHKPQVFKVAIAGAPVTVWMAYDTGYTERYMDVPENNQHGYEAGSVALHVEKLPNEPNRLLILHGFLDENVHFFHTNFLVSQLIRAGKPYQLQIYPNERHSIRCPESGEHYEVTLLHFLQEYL
ALPK2, sequence (Q86TB3 whole entry): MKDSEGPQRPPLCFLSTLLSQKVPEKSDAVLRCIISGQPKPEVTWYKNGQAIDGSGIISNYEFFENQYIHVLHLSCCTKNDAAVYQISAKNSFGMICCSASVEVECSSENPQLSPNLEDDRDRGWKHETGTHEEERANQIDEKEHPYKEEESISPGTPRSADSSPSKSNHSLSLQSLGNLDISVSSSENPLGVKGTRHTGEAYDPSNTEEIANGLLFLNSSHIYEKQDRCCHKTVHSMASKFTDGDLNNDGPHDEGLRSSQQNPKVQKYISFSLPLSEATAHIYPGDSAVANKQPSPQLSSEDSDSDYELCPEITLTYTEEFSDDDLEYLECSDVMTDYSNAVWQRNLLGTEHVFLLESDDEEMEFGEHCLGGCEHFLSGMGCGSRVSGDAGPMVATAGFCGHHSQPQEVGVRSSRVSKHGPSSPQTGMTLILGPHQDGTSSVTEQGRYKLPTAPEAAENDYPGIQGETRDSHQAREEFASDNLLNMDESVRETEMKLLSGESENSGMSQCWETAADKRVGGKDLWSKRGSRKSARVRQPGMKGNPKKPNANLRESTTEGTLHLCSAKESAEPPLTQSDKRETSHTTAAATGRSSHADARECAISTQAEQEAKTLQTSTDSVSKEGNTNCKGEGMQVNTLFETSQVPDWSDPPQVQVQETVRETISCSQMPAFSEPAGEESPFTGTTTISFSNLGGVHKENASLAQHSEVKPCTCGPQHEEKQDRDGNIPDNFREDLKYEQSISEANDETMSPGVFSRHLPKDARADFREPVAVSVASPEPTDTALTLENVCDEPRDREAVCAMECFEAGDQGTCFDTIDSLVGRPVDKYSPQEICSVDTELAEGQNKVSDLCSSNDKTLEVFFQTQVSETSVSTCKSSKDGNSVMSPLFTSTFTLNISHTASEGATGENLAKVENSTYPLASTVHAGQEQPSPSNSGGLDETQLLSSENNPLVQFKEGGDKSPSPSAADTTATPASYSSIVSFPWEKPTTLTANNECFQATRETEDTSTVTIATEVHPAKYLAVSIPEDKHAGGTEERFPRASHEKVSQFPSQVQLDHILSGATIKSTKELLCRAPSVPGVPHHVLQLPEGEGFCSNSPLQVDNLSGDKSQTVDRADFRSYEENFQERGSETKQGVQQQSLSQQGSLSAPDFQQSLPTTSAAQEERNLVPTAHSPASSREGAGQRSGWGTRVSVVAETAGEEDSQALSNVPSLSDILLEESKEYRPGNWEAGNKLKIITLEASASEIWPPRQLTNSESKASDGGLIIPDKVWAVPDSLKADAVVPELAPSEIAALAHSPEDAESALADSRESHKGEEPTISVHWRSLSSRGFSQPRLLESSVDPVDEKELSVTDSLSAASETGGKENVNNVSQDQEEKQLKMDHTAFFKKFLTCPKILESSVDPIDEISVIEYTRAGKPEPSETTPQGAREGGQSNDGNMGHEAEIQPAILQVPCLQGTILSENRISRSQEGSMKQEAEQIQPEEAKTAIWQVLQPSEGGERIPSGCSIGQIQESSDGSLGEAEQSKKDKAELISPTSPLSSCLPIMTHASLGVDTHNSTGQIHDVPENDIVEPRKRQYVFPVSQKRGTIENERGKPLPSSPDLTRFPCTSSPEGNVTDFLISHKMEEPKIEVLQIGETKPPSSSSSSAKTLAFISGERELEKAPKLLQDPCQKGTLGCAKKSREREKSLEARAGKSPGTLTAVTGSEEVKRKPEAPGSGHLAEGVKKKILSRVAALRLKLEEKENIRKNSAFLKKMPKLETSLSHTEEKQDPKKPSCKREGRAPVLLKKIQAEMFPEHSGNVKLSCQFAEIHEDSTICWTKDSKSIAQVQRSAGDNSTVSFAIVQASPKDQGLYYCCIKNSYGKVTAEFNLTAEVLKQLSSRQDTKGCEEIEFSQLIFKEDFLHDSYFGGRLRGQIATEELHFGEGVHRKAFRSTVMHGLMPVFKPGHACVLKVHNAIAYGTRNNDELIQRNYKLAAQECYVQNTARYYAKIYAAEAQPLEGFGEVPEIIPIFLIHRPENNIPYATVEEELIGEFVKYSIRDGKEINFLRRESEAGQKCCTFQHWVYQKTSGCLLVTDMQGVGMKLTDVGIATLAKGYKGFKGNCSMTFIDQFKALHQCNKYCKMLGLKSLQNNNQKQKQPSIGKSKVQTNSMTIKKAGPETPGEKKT

B1: LZTR1 R810W-FLAG (other, human, UniProt Q8N653 1-840, looked up)
chain: MAGPGSTGGQIGAAALAGGARSKVAPSVDFDHSCSDSVEYLTLNFGPFETVHRWRRLPPCDEFVGARRSKHTVVAYKDAIYVFGGDNGKTMLNDLLRFDVKDCSWCRAFTTGTPPAPRYHHSAVVYGSSMFVFGGYTGDIYSNSNLKNKNDLFEYKFATGQWTEWKIEGRLPVARSAHGATVYSDKLWIFAGYDGNARLNDMWTIGLQDRELTCWEEVAQSGEIPPSCCNFPVAVCRDKMFVFSGQSGAKITNNLFQFEFKDKTWTRIPTEHLLRGSPPPPQRRYGHTMVAFDRHLYVFGGAADNTLPNELHCYDVDFQTWEVVQPSSDSEVGGAEVPERACASEEVPTLTYEERVGFKKSRDVFGLDFGTTSAKQPTQPASELPSGRLFHAAAVISDAMYIFGGTVDNNIRSGEMYRFQFSCYPKCTLHEDYGRLWESRQFCDVEFVLGEKEECVQGHVAIVTARSRWLRRKITQARERLAQKLEQEAAPVPREAPGVAAGGARPPLLHVAIREAEARPFEVLMQFLYTDKIKYPRKGHVEDVLLIMDVYKLALSFQLCRLEQLCRQYIEASVDLQNVLVVCESAARLQLSQLKEHCLNFVVKESHFNQVIMMKEFERLSSPLIVEIVRRKQQPPPRTPLDQPVDIGTSLIQDMKAYLEGAGAEFCDITLLLDGHPRPAHKAILAARSSYFEAMFRSFMPEDGQVNISIGEMVPSRQAFESMLRYIYYGEVNMPPEDSLYLFAAPYYYGFYNNRLQAYCKQNLEMNVTVQNVLQILEAADKTQALDMKRHCLHIIVHQFTKVSKLPTLWSLSQQLLLDIIDSLASHISDKQCAELGADI
notes: Stably expressed in U87 cells by lentivirus; also called LZTR1-FLAG-R810W; LZTR1 RW; not shown: FLAG tag
binds: all assays above
